{
  "source": "patent US20210379147A1",
  "about": "“METHOD AND SYSTEM FOR TREATING CANCER UTILIZING TINAGL1” (The Trustees of Princeton University, priority 2018, published 2021)",
  "key": {"[1]": {"biological_target": "T1, EGFR extracellular domain recombinant protein (Homo sapiens, UniProt P00533)", "T1 construct": "EGFR extracellular domain recombinant protein was purchased from Novoprotein (CI61); purchased Novoprotein CI61", "test": "IP between recombinant Tinagl1 and recombinant His-tagged EGFR protein", "assay_type": "binding", "conditions": "5 μg each protein in PBS, IP with His antibody", "experimental": "FIG. 13B is an image of a WB assay where 5 μg each of recombinant His-tagged EGFR protein and recombinant Tinagl1 protein were added into 1.5 ml of PBS. 100 μl of combined solution was transferred to a new tube and served as input, and the rest was split into two tubes and IP with 2 μg of IgG or His antibody respectively; the IP samples were washed with PBS and analyzed with WB.\nImmunoprecipitation (IP) and western blotting (WB) analysis. For an IP experiment, cells were collected in 1.5 ml EP tube when they reached to 100% confluency in 10 or 15 cm dish as indicated. 1 ml of IP lysis buffer (20 mM Tris pH7.4, 0.15 M NaCl, 1 mM EDTA, 1 mM EGTA, 1% Tx-100) with complete protease inhibitor cocktail (Roche, 14493900) was added and put on ice for 20 min. Meanwhile, culture media was 100× concentrated and mixed with the cell lysates. The samples were centrifuged, 100 μl of the supernatant was transferred to a new tube as input, and the rest was incubated with 2 μg of IgG, anti-HA, anti-Myc, anti-Integrin subunit β1, anti-Integrin subunit α5 or anti-EGFR (as indicated in each experiment) overnight at 4° C. (recombinant proteins may be added at this step as indicated in each experiment). 30 μL of protein A/G agarose beads (Santa Cruz, sc-2003) was then added in each sample for another 2 hours at 4° C. the next day. […] The IP samples were washed with PBS and analyzed with WB. […]"}, "LM2 cells [2]": {"tested_on": "LM2 cells", "test": "Experimental lung metastasis after intravenous injection of LM2 cells, BLI and nodule count", "assay_type": "in vivo, NSG mice", "experimental": "FIG. 6 is a graph of lung metastasis burden measured by BLI every week, for NSG mice under one of three treatment regimens: 1) PBS immediately following injection (510), 2) PBS for the first two weeks followed by r-Tinagl1 treatment (520), and 3) r-Tinagl1 immediately after injection (530).\nReferring to FIG. 6, to further evaluate the therapeutic potential of r-Tinagl1 treatment during metastasis, LM2 cells were injected intravenously to generate lung metastasis, and the mice were separated into three distinct treatment groups: 1) PBS immediately following injection (510), 2) PBS for the first two weeks followed by r-Tinagl1 treatment (520), and 3) r-Tinagl1 immediately after injection (530).\n(§1) For xenograft studies, 8-weeks immunocompromised NOD Scid Gamma (NSG) or immunocompetent FVB females were used. Cells were suspended in 10 μl of PBS for mammary gland injection (MFP), or were suspended in 100 μl of PBS for intravenous injection. For human patient-derived xenograft (PDX, HCL001, kindly provided by Dr. Alana Welm) study, we followed the standard protocol for PDX transplantation, maintenance and digestion of the tumors (DeRose et al., 2011). 2×10^4 cells were suspended in 10 μl of PBS and subjected to MFP injection. For recombinant Tinagl1 (r-Tinagl1), ATN-161, Erlotinib treatments, the mice were injected with 30 μg/mouse, 30 μg/mouse, and 100 mg/kg respectively twice per week via tail-vein. Primary tumors were quantified once per week via caliper measurement. All cell lines used for lung metastasis experiments were stably labeled with a firefly luciferase expressing vector and were monitored by weekly bioluminescent imaging (BLI). At protocol-defined endpoints, lungs were dissected and fixed in bouin's solution and the metastatic lesions were counted."}, "LM2 cells [3]": {"tested_on": "LM2 cells", "test": "LM2 orthotopic tumors, single or combined agent treatment", "assay_type": "in vivo, NSG female mice", "experimental": "FIG. 17A is an image of WB analyses where NSG female mice were injected with 10^4 LM2 cells by MFP injection, and intravenously treated with the indicated reagents twice per week when tumors reached to 2 mm in dimeter, then after 5 weeks of the treatments, the primary tumors of each group were collected and activation of EGFR and FAK in primary tumor of each group were tested by WB.\nFIG. 17B is a graph illustrating tumor volumes of each treatment group from FIG. 17A.\nFIG. 17C is a graph, quantifying ex vivo BLI results where lungs in mice from FIG. 17A were collected and spontaneous metastasis was examined at the endpoint.\nTwo molecular targeting reagents, ATN-161 (ATN) and Erlotinib (Erlo) were employed. ATN is an integrin α5β1 antagonist that inhibits the integrin signaling pathway and slows tumor progression. Erlotinib is a well-established small molecular inhibitor of EGFR and is clinically approved for cancer treatment. Mice orthotopically implanted with LM2 cells were split into 6 groups after the tumors reached 2 mm in diameter and subjected to various single or combined agent treatments twice per week [(1) PBS; (2) ATN 30 μg/mouse; (3) Erlo 100 mg/kg; (4) r-Tinagl1 30 μg/mouse; (5) ATN and Erlo; and (6) ATN, Erlo, and r-Tinagl1]. Referring to FIG. 17A, the inhibition of integrin/FAK and EGFR upon each treatment was validated by western blotting and TIC staining.\nas §1"}},
  "data": [
    {"molecule": "r-Tinagl1: full length recombinant human Tinagl1 with 6×His tag at the C-terminus [SEQ ID NO.: 24], expressed in HEK293T cells (protein, listed as Homo sapiens, C-terminal 6xHis tag) MWRCPLGLLLLLPLAGHLALGAQQGRGRRELAPGLHLRGIRDAGGRYCQEQDLCCRGRADDCALPYLGAICYCDLFCNRTVSDCCPDFWDFCLGVPPPFPPIQGCMHGGRIYPVLGTYWDNCNRCTCQENRQWQCDQEPCLVDPDMIKAINQGNYGWQAGNHSAFWGMTLDEGIRYRLGTIRPSSSVMNMHEIYTVLNPGEVLPTAFEASEKWPNLIHEPLDQGNCAGSWAFSTAAVASDRVSIHSLGHMTPVLSPQNLLSCDTHQQQGCRGGRLDGAWWFLRRRGVVSDHCYPFSGRERDEAGPAPPCMMHSRAMGRGKRQATAHCPNSYVNNNDIYQVTPVYRLGSNDKEIMKELMENGPVQALMEVHEDFFLYKGGIYSHTPVSLGRPERYRRHGTHSVKITGWGEETLPDGRTLKYWTAANSWGPAWGERGHFRIVRGVNECDIESFVLGVWGRVGMEDMGHHVDHHHHHH", "values": [
      {"measurement": "direct interaction with EGFR", "setting": "[1]", "result": "confirmed the direct interaction"},
      {"measurement": "metastatic growth (BLI)", "setting": "LM2 cells [2]; PBS for the first two weeks followed by r-Tinagl1 treatment", "result": "dramatically decreased metastatic growth"},
      {"measurement": "number of lung metastasis nodules", "setting": "LM2 cells [2]; both r-Tinagl1 treatment groups, end of experiment", "result": "significantly reduced number of lung metastasis nodules"},
      {"measurement": "metastatic growth (BLI)", "setting": "LM2 cells [2]; r-Tinagl1 immediately after injection (continuous)", "result": "significantly reduced metastatic growth"},
      {"measurement": "primary tumor growth", "setting": "LM2 cells [3]; LM2, twice per week, ATN 30 μg/mouse, Erlo 100 mg/kg, r-Tinagl1 30 μg/mouse", "result": "significantly suppressed primary tumor growth"},
      {"measurement": "spontaneous lung metastasis", "setting": "LM2 cells [3]; LM2 tumors, ex vivo BLI at endpoint", "result": "reduced spontaneous lung metastasis"}
    ]}
  ]
}
